Columns and labels:
[1] = target: T1, Fas-Fc / Fas ligand binding (Mus musculus, UniProt P25446); experiment: Competition ELISA: coated Fas ligand, Fas-Fc added with increasing amounts of polypeptide; details: Fas ligand 1 μg/ml coated, Fas-Fc 1 μg/ml
T1 construct: purchased R&D
T1 sequence (P25446 22-169 limits assumed): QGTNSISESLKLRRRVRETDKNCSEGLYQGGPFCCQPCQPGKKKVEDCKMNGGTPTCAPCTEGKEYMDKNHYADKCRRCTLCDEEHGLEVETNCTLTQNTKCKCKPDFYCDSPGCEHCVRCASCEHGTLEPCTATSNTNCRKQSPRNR
Experimental: This antibody also recognizes Fas-Fc which is also tagged at the C-terminus by His. In FIG. 2b, a fixed amount of purified recombinant Fas-ligand was added to Fas-Fc in the absence or presence of increasing amounts of AlphaMet as indicated. Samples were subjected to pull down using proteinA agarose followed by Western blot using a polyclonal rabbit anti-FasL antibody. […] Fas ligand (1 μg/ml) was coated in the wells of a microtiter plate (triplicate wells) then 1 μg/ml of Fas-Fc was added in the absence or presence of an increasing amount of the indicated polypeptide. A 13 mer YLGA polypeptide derived from FasL also was synthesized and used. The control peptide was a scrambled 13 mer. Anti human IgM-HRP conjugates were used to detect the bound Fas-Fc. […] One-way ANOVA was carried out for determination of statistical significance. […] Cells (3×10^5) were plated in 24-well plates having Poly-L-Lysine pre-treated cover glass. 2 μg/ml of Fas ligand was added and the cells were incubated for 30 min on ice. Cells were then washed by PBS twice, and were subjected to immunostaining using anti-Fas ligand antibody and fluorescent microscopy. In Frame A, Fas ligand was not added, in B, only Fas ligand was added, in C-F, Fas ligand was added with different polypeptides as follows: AlphaMet, 12 mer YLGA, control peptide, and YLGA mutated AlphaMet, respectively.
(§1) ELISA. Synthesized polypeptides (Genemed Synthesis, Inc. South San Francisco, Calif.) were dissolved in water and diluted in the coating buffer (0.05M of Sodium Carbonate, 0.02% of Sodium Azide, pH 9.6) to a final concentration of 1 ug/ml. One hundred microliter aliquots were added to coat each well of a 96-well microtitre plate. The coated plates were then washed with PBS-Tween (0.5%) three times. The plates were blotted and dried by tapping upside down on tissue paper. They were blocked using 200 μl of 1% of BSA in PBS solution followed by a 2 hour incubation. Plates were washed another three times, Fas-Fc was added, and the plates were incubated for another 2 hours. The plates were washed three times and anti-human IgM Fc HRP conjugates were included at a final concentration of 1:20,000, and incubated for 1 hour. Plates were washed three times again and ready-to-use TMD was added and incubated for 30 minutes. The color reaction was stopped by 2M of Sulfuric Acid. Plates were applied to color read at a wave length of 450 nm.

Fas-Fc = target: T2, Fas-Fc (Mus musculus, UniProt P25446); experiment: ELISA of Fas-Fc binding to coated synthetic polypeptides; details: peptides coated at 1 μg/ml, increasing Fas-Fc, OD 450 nm
T2 construct: purchased R&D
T2 sequence (P25446 22-169 limits assumed): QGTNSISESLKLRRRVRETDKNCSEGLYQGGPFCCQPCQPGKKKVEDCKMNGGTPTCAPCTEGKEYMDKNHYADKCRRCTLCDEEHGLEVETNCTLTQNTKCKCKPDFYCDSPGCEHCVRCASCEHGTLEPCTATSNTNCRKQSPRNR
From the text: The Met alpha but not beta chain binds to Fas (FIG. 1a). Various regions of the mouse Met cDNA corresponding to the alpha chain or the extra-cellular portion of the Met beta chain were cloned into expression vectors (pCRT7 TOPO/AlphaMet or pCRT7 TOPO/beta chain) and subjected to in vitro transcription/translation by a rabbit reticolucyte lysate translation system. Empty vector was included in each experiment as a control. The expressed proteins were labeled with ^35S-Methionine. Pull down assays were performed using Fas-Fc, a chimeric molecule which lacks the interacellular cytoplasmic domain and protein-A agarose as described in Wang et al., 2002. FIG. 1b is a schematic presentation of the Met alpha chain and its mutant version used to map the region interacting with Fas. The C-terminus of each construct contains a hexa-Histidine tag for ease of detection. Start cordon ATG was added to the N-terminally truncated constructs. The YLGA (SEQ ID NO:1) motif mutation was prepared by PCR, in which YLGA (SEQ ID NO:1) was replaced by DHER (SEQ ID NO:24). […] In vitro translated ^35S-methionine labeled truncated/mutated AlphaMet proteins were pulled down with 2 μg of Fas-Fc or the same amount of IgG. Lane 1: 10% of AlphaMet input; Lane 2: AlphaMet with IgG control; Lanes 3 to 8: pull down of various truncated AlphaMet proteins; N-terminal 1-106 residues; C-terminal truncated, residues 1-210; alpha chain, residues 1-306; alpha chain with transmembrane domain, 1-338; N-terminally truncated alpha chain, residues 100-306; and N-terminally truncated with addition of the transmembrane domain 100-338, respectively. FIG. 1d depicts the amino acid sequence alignment of alpha chain with FasL, determined using the CLUSTALW, SIM+LALNVIEW, and ALIGN at ExPASy Proteomic Tools (available on the internet at us.expresly.org/tools). The numbers indicate the amino acid residues of the indicated protein. […] Recombinant His-tagged AlphaMet or its mutant version were expressed in E. coli, purified with chromatography, and subjected to Fas-Fc (lanes labeled Fas) or control IgG pull down experiments, and detected by Western blot using anti-His antibody that recognizes C-terminal His. This antibody also recognizes the Fas-Fc which is also tagged at the C-terminus by His. […] Purified recombinant AlphaMet protein (approximately 10 μg) was mixed with Hepa 1-6 cells or Jurkat cell lysates and subjected to immunoprecicitation using anti-Fas antibody or control IgG followed by Western blot using anti His-tag antibody as a probe. […] Peptides (1 μg/ml) were coated into the 96-well microtiter plates in triplicate and after blocking with 1% BSA, increasing amounts of Fas-Fc were added as indicated. The control peptide was a scrambled 13 mer. After washing the wells, anti-human […]-HRP conjugates (1:20,000) were added to detect the bound Fas-Fc using TMD dye and the OD value was determined at a wavelength of 450 nm. One-way ANOVA was carried out for determination of statistical significance.
as §1, with “Plates were applied to color read at a wave length of 450 nm.” left out

[2] = target: CFP-tagged and YFP-tagged Fas expressed in Hepa 1-6 cells; experiment: cell-based or functional assay
[3] = target: T3, Fas-Fc (extracellular part of Fas) (Mus musculus, UniProt P25446); experiment: Fas-Fc pull down assay with protein-A agarose; type: binding; details: in vitro translated 35S-labeled proteins, autoradiography
T3 construct: purchased R&D
T3 sequence (P25446 22-169 limits assumed): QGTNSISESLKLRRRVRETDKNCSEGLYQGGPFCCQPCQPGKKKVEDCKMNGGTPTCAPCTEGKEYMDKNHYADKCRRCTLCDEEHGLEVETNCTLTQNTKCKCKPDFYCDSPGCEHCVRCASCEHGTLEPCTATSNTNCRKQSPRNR
From the text: The Met alpha but not beta chain binds to Fas (FIG. 1a). Various regions of the mouse Met cDNA corresponding to the alpha chain or the extra-cellular portion of the Met beta chain were cloned into expression vectors (pCRT7 TOPO/AlphaMet or pCRT7 TOPO/beta chain) and subjected to in vitro transcription/translation by a rabbit reticolucyte lysate translation system. Empty vector was included in each experiment as a control. The expressed proteins were labeled with ^35S-Methionine. Pull down assays were performed using Fas-Fc, a chimeric molecule which lacks the interacellular cytoplasmic domain and protein-A agarose as described in Wang et al., 2002. FIG. 1b is a schematic presentation of the Met alpha chain and its mutant version used to map the region interacting with Fas. The C-terminus of each construct contains a hexa-Histidine tag for ease of detection. Start cordon ATG was added to the N-terminally truncated constructs. The YLGA (SEQ ID NO:1) motif mutation was prepared by PCR, in which YLGA (SEQ ID NO:1) was replaced by DHER (SEQ ID NO:24). […] In vitro translated ^35S-methionine labeled truncated/mutated AlphaMet proteins were pulled down with 2 μg of Fas-Fc or the same amount of IgG. Lane 1: 10% of AlphaMet input; Lane 2: AlphaMet with IgG control; Lanes 3 to 8: pull down of various truncated AlphaMet proteins; N-terminal 1-106 residues; C-terminal truncated, residues 1-210; alpha chain, residues 1-306; alpha chain with transmembrane domain, 1-338; N-terminally truncated alpha chain, residues 100-306; and N-terminally truncated with addition of the transmembrane domain 100-338, respectively. FIG. 1d depicts the amino acid sequence alignment of alpha chain with FasL, determined using the CLUSTALW, SIM+LALNVIEW, and ALIGN at ExPASy Proteomic Tools (available on the internet at us.expresly.org/tools). The numbers indicate the amino acid residues of the indicated protein. […] Recombinant His-tagged AlphaMet or its mutant version were expressed in E. coli, purified with chromatography, and subjected to Fas-Fc (lanes labeled Fas) or control IgG pull down experiments, and detected by Western blot using anti-His antibody that recognizes C-terminal His. This antibody also recognizes the Fas-Fc which is also tagged at the C-terminus by His. […] Purified recombinant AlphaMet protein (approximately 10 μg) was mixed with Hepa 1-6 cells or Jurkat cell lysates and subjected to immunoprecicitation using anti-Fas antibody or control IgG followed by Western blot using anti His-tag antibody as a probe. […] After washing the wells, anti-human […]-HRP conjugates (1:20,000) were added to detect the bound Fas-Fc using TMD dye and the OD value was determined at a wavelength of 450 nm. […]

With HHIFLGATNYIY the “inhibition of FasL binding to Fas-Fc (ELISA)” value (shortened to “inhibition of FasL binding”) [1] was “significantly inhibited FasL binding” and the “Fas binding by ELISA” value (Fas-Fc) was “strong Fas-binding activity”.

In the case of RLGA, the “Fas binding by ELISA” value (Fas-Fc) is reported as “completely lost their Fas binding capacity”.

With “FTAETPIQNVVLHGHHIYLGATNYIYVLNDKDLQKV [36 mer]” the “inhibition of FasL binding” value [1] was “significantly inhibited FasL binding” and the “Fas binding by ELISA” value (Fas-Fc) was “bound Fas strongly”.

YLRA was tested, and the “Fas binding by ELISA” value (Fas-Fc) was “completely lost their Fas binding capacity”.

“TGHIYLGAVNRIY [13-mer derived from PlexinA4]” was tested, and the “inhibition of FasL binding” value [1] was “significantly inhibited FasL binding” and the “Fas binding by ELISA” value (Fas-Fc) was “strong Fas-binding activity”.

For AHSSYLGAVFNLT [YLGA-13 mer], the “inhibition of FasL binding” value [1] was “significantly inhibited FasL binding” and the “Fas binding by ELISA” value (Fas-Fc) was “bound Fas strongly”.

For FLGA [FLGA tetramer], the “Fas binding by ELISA” value (Fas-Fc) was “identical binding activity to that of the YLGA tetramer”.

In the case of YRGA, the “Fas binding by ELISA” value (Fas-Fc) is reported as “completely lost their Fas binding capacity”.

In the case of FLGAV, the “inhibition of FasL binding” value [1] is reported as “inhibiting FasL binding to Fas” and the “Fas binding by ELISA” value (Fas-Fc) is reported as “very active in binding to Fas”.

Work on Jo2, monoclonal anti-Fas antibody yielded a percent of fluorescent cells showing Fas capping [2] of 30%.

B1: Met beta chain: extracellular region of Met beta chain (amino acids 308 to 968, with transmembrane portion) (protein)
chain: TREEVFNILQAAYVSKPGANLAKQIGASPSDDILFGVFAQSKPDSAEPVNRSAVCAFPIKYVNDFFNKIVNKNNVRCLQHFYGPNHEHCFNRTLLRNSSGCEARSDEYRTEFTTALQRVDLFMGRLNQVLLTSISTFIKGDLTIANLGTSEGRFMQVVLSRTAHLTPHVNFLLDSHPVSPEVIVEHPSNQNGYTLVVTGKKITKIPLNGLGCGHFQSCSQCLSAPYFIQCGWCHNQCVRFDECPSGTWTQEICLPAVYKVFPTSAPLEGGTVLTICGWDFGFRKNNKFDLRKTKVLLGNESCTLTLSESTTNTLKCTVGPAMSEHFNVSVIISNSRETTQYSAFSYVDPVITSISPRYGPQAGGTLLTLTGKYLNSGNSRHISIGGKTCTLKSVSDSILECYTPAQTTSDEFPVKLKIDLANRETSSFSYREDPVVYEIHPTKSFISGGSTITGIGKTLNSVSLPKLVIDVHEVGVNYTVACQHRSNSEIICCTTPSLKQLGLQLPLKTKAFFLLDGILSKHFDLTYVHNPVFEPFEKPVMISMGNENVVEIKGNNIDPEAVKGEVLKVGNQSCESLHWHSGAVLCTVPSDLLKLNSELNIEWKQAVSSTVLGKVIVQPDQNFAGLIIGAVSISVVVLLLSGLFLWMRKRKHKDLGSELVR
In the case of B1, the “Fas binding in Fas-Fc pull down” value [3] is reported as “not the Met beta chain region bound specifically”.

Source: patent publication US20070184522A1, “Cell death modulation via antagonists of Fasl and Fas activation” (University of Pittsburgh of the Commonwealth System of …, priority 2004, published 2007)
